{
  "source": "patent US12662540B2",
  "about": "“Compositions and methods for inhibition of MICA/B shedding” (DANA-FARBER CANCER INSTITUTE, INC., priority 2017, dated 2026)",
  "molecules": {"B1": {"name": "7C6: monoclonal antibody from mice immunized with recombinant MICA α3 domain; parental mIgG2b; VH SEQ ID NO: 7, VL SEQ ID NO: 8 (antibody)", "VH": "QIQLVQSGPELKKPGETVKVSCKASGYMFTNYAMNWVKQAPEKGLKWMGWINTHTGDPTYADDFKGRIAFSLETSASTAYLQINNLKNEDTATYFCVRTYGNYAMDYWGQGTSVTVSSAKTTAPSVYPLAPVCGDTTGSSVTLGCLVKGYFPEPVTLTWNSGSLSSGVHTFPAVLQSDLYTLSSSVTVTSS", "VL": "DIQMTQTTSSLSASLGDRVTISCSASQDISNYLNWYQQKPDGTVKLLIYDTSILHLGVPSRFSGSGSGTDYSLTISNLEPEDIATYYCQQYSKFPRTFGGGTTLEIK", "modifications": "mAb 7C6 heavy chain amino acid sequence; mAb 7C6 light chain amino acid sequence"}},
  "key": {"[1]": {"test_system": "short-term human melanoma cell lines", "assay": "MICA/MICB shedding by short-term human melanoma cell lines", "format": "cell-based", "conditions": "24-72 hours", "description": "A375, HCT-116, SK-N-SH, K562, A2058, B16F10, CT26, and Neuro-2a cell lines were all obtained from American Type Culture Collection (ATCC). HEPG2 and MDA-MB-231 cell lines were kindly provided by Drs. Chandan Sharma and Martin Hemler, Dana-Farber Cancer Institute, Boston. The EL4 and RMA-S cell lines were generous gifts from Dr. Mark Smyth, QIMR Berghofer Medical Research Institute, Herston, Australia. The short-term human melanoma cell lines CY.21A-S1, CY36-S1, and CY048-S were obtained from patients following surgical resection of metastatic lesions as previously described (27). All cell lines were mycoplasma free, as tested by MycoProbe Mycoplasma Detection Kit (R&D Systems). Human and murine cell lines were cultivated in RPMI-1640 or DMEM media, respectively, supplemented with 10% fetal bovine serum (FBS), 1× Glutamax® (Gibco), and 1× Penicillin and Streptomycin (Gibco). […]\nTumor cells (5×10^4 or 1×10^5 per well, depending on the cell line) were cultured for 24 to 72 hours in 96-well plates (flat-bottom plates for adherent cell lines, U-bottom plates for suspension cell lines). […] MICA or control antibodies were added at different concentrations, and shed MICA/B was then detected in supernatants by ELISA using the Human MICA ELISA kit (Ab59569, Abcam) or Human MICB DuoSet ELISA kit (DY1599, R&D Systems), using the procedures recommended by the manufacturers. […]"}, "[2]": {"test_system": "subcutaneous B16F10 tumors", "assay": "Subcutaneous B16F10-MICA model", "format": "in vivo, mice (C57BL/6, Igh−/−)", "description": "C57BL/6 mice were injected subcutaneously with 1×10^6 B16F10 cells that had been transduced with different lentiviral vectors (ZsGreen reporter). Five days later, treatment was initiated with 7C6-mIgG2a, 7C6-mIgG2b-DANA, or isotype control (C1184) antibodies (200 μg/mouse). Treatment was continued as indicated in the relevant figures. For antibody blockade, Igh^−/− mice were given 200 μg/mouse of anti-NKG2D (HMG2D) or control IgG (MOPC-21) on days −1, 0, 5, 9, 14, and 19. Mice were bled on day 9. Tumor size was monitored with a digital caliper and the tumor area was calculated by multiplying the two largest diameters. To minimize suffering, the end point was defined as a tumor size of 200 mm2.\nC57BL/6 mice were injected subcutaneously with 1×10^6 B16F10 cells that had been transduced with different lentiviral vectors (ZsGreen reporter). Five days later, treatment was initiated with 7C6-mIgG2a, 7C6-mIgG2b-DANA, or isotype control (C1184) antibodies (200 μg/mouse). Treatment was continued as indicated in the relevant Figures. For antibody blockade, Igh^−/− mice were given 200 μg/mouse of anti-NKG2D (HMG2D) or control IgG (MOPC-21) on days −1, 0, 5, 9, 14, and 19. Mice were bled on day 9. Tumor size was monitored with a digital caliper and the area was calculated by multiplying the two largest diameters. To minimize suffering, the end point was defined as the time point when tumors reached a size of 200 mm^2.\nIgh^−/− mice were injected subcutaneously with 1×10^6 B16F10-MICA cells that had been transduced with a ZsGreen-based lentiviral vector that drives MICA expression. On days 5, 7 and 9 after tumor cell inoculation, mice were treated with 200 μg 7C6-mIgG2a or isotype control antibodies. On days 7 and 14, sets of mice were euthanized and tumors were removed. Tumors were then mechanically dissociated to preserve MICA integrity on the cell surface. Next, Fc receptors were blocked using Mouse True Stain FcX (Biolegend). Cells were subsequently stained with a PE-conjugated anti-mouse IgG antibody (Poly4053, Biolegend). Cells were then washed and stained with APC-conjugated anti-MICAS antibody (6D4), PE-Cγ7-CD45.2 and Zombie NIR (all from Biolegend). Viable tumor cells were identified by flow cytometry based on size, ZsGreen fluorescence and absence of CD45.2 expression. Samples were examined using a Sony Spectral Analyzer or Beckman Coulter CytoFLEX, and data were analyzed by FlowJo."}, "[3]": {"test_system": "RPMI-8226 cell line", "assay": "Proteasome inhibitor combination with MICA/B antibody, multiple myeloma cell lines", "format": "cell-based, human"}, "[4]": {"test_system": "MICA α3 domain", "assay": "ELISA for antibody binding to immobilized MICA α3 domain", "design": "species or system human", "conditions": "fluorescence-based ELISA, immobilized antigen", "description": "ELISA experiments were performed in DELFIA® 96-well plates (Perkin Elmer) or in Nunc Maxisorp 96-wells plates (Thermo Scientific). Wells were coated with antigens by overnight incubation at 4° C. using 100 ng of protein in 100 μl of carbonate buffer, […]. Plates were subsequently washed with 1× Tris-buffered saline-Tween buffer and incubated for 2 hours with 2% bovine serum albumin (BSA) in phosphate buffered saline (PBS), pH 7.4, or DELFIA® Assay Buffer (Perkin Elmer) at room temperature. MICA antibodies were used at 1 μg/ml, unless indicated otherwise. Isotype controls were MPC-11 (mIgG2b) and MOPC-21 (mIgG1), but only MPC-11 is shown in the figures, given that no differences were observed between these controls. Human isotype control was a recombinant human IgG1 antibody (BE0096, BioXcell). Biotinylated goat anti-mouse IgG (Poly4053—Biolegend) was used as the secondary antibody which was followed by streptavidin-Europium (Perkin Elmer) and DELFIA® Enhancement Solution (Perkin Elmer). Europium fluorescence was quantified using an EnVision® microplate reader (Perkin Elmer). The HRP-conjugated secondary antibodies were Novex® Goat anti-human IgG (A24470, Life Technologies), Goat anti-mouse IgG1 (1070-05), IgG2a (1080-08), IgG2b (1090-05), and IgG3 (1100-05), and Goat anti-mouse IgG (31430, Thermo Scientific). […] Absorbance was read at 450 nm."}, "[5]": {"test_system": "A375 melanoma cell line", "assay": "In vitro assay for inhibition of MICA shedding, A375 cells (sandwich ELISA of supernatant)", "format": "cell-based, human", "conditions": "A375 cells treated for 24 hours", "description": "Tumor cells (5×10^4 or 1×10^5 per well, depending on the cell line) were cultured for 24 to 72 hours in 96-well plates (flat-bottom plates for adherent cell lines, U-bottom plates for suspension cell lines). Human and murine cell lines were cultivated in RPMI-1640 or DMEM media, respectively, supplemented with 10% fetal bovine serum (FBS), 1× Glutamax® (Gibco), and 1× Penicillin and Streptomycin (Gibco). MICA or control antibodies were added at different concentrations, and shed MICA/B was then detected in supernatants by ELISA using the Human MICA ELISA kit (Ab59569, Abcam) or Human MICB DuoSet ELISA kit (DY1599, R&D Systems), using the procedures recommended by the manufacturers. For both assays, standard curves were generated using recombinant MICA*008 or MICB*005 extracellular domain proteins that had been expressed using the Baculovirus system."}, "[6]": {"test_system": "A375 human melanoma cell line", "assay": "Dacarbazine combination with MICA/B antibody, A375 cells", "format": "cell-based"}},
  "data": [
    {"molecule": "B1", "values": [
      {"measurement": "MICA and MICB shedding by short-term human melanoma cell lines", "setting": "[1]", "result": "inhibited MICA and MICB shedding"},
      {"measurement": "subcutaneous tumor growth inhibition, Igh−/− versus wild-type mice", "setting": "[2]; B16F10-MICA, 200 μg", "result": "inhibited growth of subcutaneous B16F10-MICA melanomas more effectively in B cell deficient mice"},
      {"measurement": "therapeutic activity against subcutaneous tumors that secrete MICA or lack NKG2D ligands", "setting": "[2]; Igh−/− mice", "result": "no therapeutic effect was observed"},
      {"measurement": "therapeutic activity against subcutaneous tumors expressing full-length MICA or MICB", "setting": "[2]; Igh−/− mice, treatment from day 5", "result": "restricted to subcutaneous tumors that expressed full-length MICA or MICB"},
      {"measurement": "receptor requirement for inhibition of subcutaneous tumor growth", "setting": "[2]; NKG2D blockade, DANA mutant", "result": "NKG2D and CD16 Fc receptors were also both required for inhibition of subcutaneous tumor growth"},
      {"measurement": "clearance of secreted MICA protein (serum, day 9)", "setting": "[2]; tumors secreting MICA", "result": "did not promote clearance of secreted MICA protein"},
      {"measurement": "MICA and MICB shedding (serum, day 9)", "setting": "[2]; tumors with full-length MICA or MICB", "result": "inhibited MICA and MICB shedding"},
      {"measurement": "human NK cell cytotoxicity against RPMI-8226, bortezomib plus antibody", "setting": "[3]; 1 nM bortezomib, versus PBS+Isotype", "result": "Human NK cell cytotoxicity is increased"},
      {"measurement": "surface MICA/B, antibody plus proteasome inhibitor", "setting": "[3]; RPMI-8226, 24 hours, 10 mg/ml 7C6", "result": "expresses higher levels of surface MICA/B"},
      {"measurement": "binding to MICA α3 domain", "setting": "[4]", "result": "bound to the MICA α3 domain"},
      {"measurement": "MICA shedding (shed MICA released into supernatant)", "setting": "[5]", "result": "inhibit MICA release into the supernatant"},
      {"measurement": "human NK cell killing of A375 cells, dacarbazine combination with MICA/B antibody", "setting": "[6]; 30 mM dacarbazine, 10 μg/ml 7C6, 48 hours", "result": "is increased by dacarbazine combination with MICA/B antibody"},
      {"measurement": "MICA/B shedding (6D4-PE staining)", "setting": "[6]; A375, 48 hours, 10 μg/ml antibody with dacarbazine", "result": "inhibited MICA/B shedding"}
    ]}
  ]
}
